Biological target: Tva-HA-Fc

Substance | percentage of GFP fluorescence signal in DF-1 cells transfected with RCASBPGDFX0602 G196A-EGFP (recombinant virus; wild type 89.65%) | percentage of GFP fluorescence signal in DF-1 cells transfected with RCASBP GDFX0602 R198H-EGFP (recombinant virus; wild type 89.65%)
soluble gp85-flag G196A (natural protein) | 0.24% | –
soluble gp85-flag R198H (natural protein) | – | 0.49%

From article PMC7772352
